These results are taken from patent publication US20020150885.

In series [1] the target is T1, N-Ac-LEVD-N′-ethoxycarbonyl R110 SEQ ID NO:9.
T1 chain: LEVD

Series [2] deals with T2, N-(Z-YVAD)-N′-acetyl-Rhodamine 110 SEQ ID NO:2.
T2 chain: YVAD

Series [3] concerns the target T3, (Z-YVAD)2-Rhodamine 110 SEQ ID NO:2.
T3 chain: YVAD

Series [4] addresses T4, N-(Z-DEVD)-N′-acetyl-Rhodamine 110 SEQ ID NO:5.
T4 chain: DEVD

Series [5] has as its target T5, (Z-VAD)2-Rhodamine 110.
T5 chain: VAD

The target of series [6] is T6, N-(Z-VAD)-N′-acetyl-Rhodamine 110.
T6 chain: VAD

Series [7] deals with T7, N-(Z-VD)-N′-acetyl-Rhodamine 110.
T7 chain: VD

The target of series [8] is T8, N-Ac-DEVD-N′-(ethylthio)carbonyl-R110 SEQ ID NO:5.
T8 chain: DEVD

The target in series [9] is T9, N-Ac-DEVD-N′-ethoxycarbonyl-R110 SEQ ID NO:5.
T9 chain: DEVD

Series [10] concerns the target T10, N-Z-EVD-N′-ethoxycarbonyl-R110.
T10 chain: EVD

The target of series [11] is T11, N-Z-DEVD-N′-ethoxycarbonyl-R110 SEQ ID NO:5.
T11 chain: DEVD

Series [12] addresses T12, N-Z-VD-N′-ethoxycarbonyl-R110.
T12 chain: VD

The target in series [13] is T13, N-Ac-DEVD-N′-hexyloxycarbonyl-R110 SEQ ID NO:5.
T13 chain: DEVD

Series [14] concerns the target T14, N-Ac-DEVD-N′-octyloxycarbonyl-R110 SEQ ID NO:5.
T14 chain: DEVD

For orientation: Km means the substrate concentration at which the rate is half of its maximum. A word on the Vmax: it is the rate approached at saturating substrate.

B1: recombinant human caspase-6 (protein)
chain: AFYKREMFDPAEKYKMDHRRRGIALIFNHERFFWHLTLPERRGTCADRDNLTRRFSDLGFEVKCFNDLKAEELLLKIHEVSTVSHADADCFVCVFLSHGEGNHIYAYDAKIEIQTLTGLFKGDKCHSLVGKPKIFIIQACRGNQHDVPVIPLDVVDNQTEKLDTNITEVDAASVYTLPAGADFLMCYSVAEGYYSHRETVNGSWYIQDLCEMLGKYGSSLEFTELLTLVNRKVSQRRVDFCKDPSAIGKKQVPCFASMLTKKLHFFPKSN
As to B1, the “signal to background ratio (fluorescence of cleaved substrate)” value in series [1] is on record as “signal to background ratios of about 13 for caspase-6 to about 26 for caspase-8”.

B2: recombinant human caspase-8 (protein)
chain: SESQTLDKVYQMKSKPRGYCLIINNHNFAKAREKVPKLHSIRDRNGTHLDAGALTTTFEELHFEIKPHDDCTVEQIYEILKIYQLMDHSNMDCFICCILSHGDKGIIYGTDGQEAPIYELTSQFTGLKCPSLAGKPKVFFIQACQGDNYQKGIPVETDSEEQPYLEMDLSSPQTRYIPDEADFLLGMATVNNCVSYRNPAEGTWYIQSLCQSLRERCPRGDDILTILTEVNYEVSNKDDKKNMGKQMPQPTFTLRKKLVFPSD
With B2, the “signal to background ratio (fluorescence of cleaved substrate)” value in [1] was “signal to background ratios of about 13 for caspase-6 to about 26 for caspase-8”.

B3: Recombinant ICE protein (protein)
chain: NPAMPTSSGSEGNVKLCSLEEAQRIWKQKSAEIYPIMDKSSRTRLALIICNEEFDSIPRRTGAEVDITGMTMLLQNLGYSVDVKKNLTASDMTTELEAFAHRPEHKTSDSTFLVFMSHGIREGICGKKHSEQVPDILQLNAIFNMLNTKNCPSLKDKPKVIIIQACRGDSPGVVWFKDSVGVSGNLSLPTTEEFEDDAIKKAHIEKDFIAFCSSTPDNVSWRHPTMGSVFIGRLIEHMQEYACSCDVEEIFRKVRFSFEQPDGRAQMPTTERVTLTRCFYLFPGH
Consider B3, for which the Km in [2] was 32 µM; in [3], 6 µM; in [4], 12 µM; in series [5], 21 µM; in [6], 70 µM. Further, the Vmax in series [2] worked out at 96 nmol/min; in series [3], 14 nmol/min; in series [4], 9 nmol/min; in [5] it was 9 nmol/min; in series [6] it was 4 nmol/min.

B4: recombinant human caspase-7 (protein)
chain: AKPDRSSFVPSLFSKKKKNVTMRSIKTTRDRVPTYQYNMNFEKLGKCIIINNKNFDKVTGMGVRNGTDKDAEALFKCFRSLGFDVIVYNDCSCAKMQDLLKKASEEDHTNAACFACILLSHGEENVIYGKDGVTPIKDLTAHFRGDRCKTLLEKPKLFFIQACRGTELDDGIQADSGPINDTDANPRYKIPVEADFLFAYSTVPGYYSWRSPGRGSWFVQALCSILEEHGKDLEIMQILTRVNDRVARHFESQSDDPHFHEKKQIPCVVSMLTKELYFSQ
For B4, the “fluorescent signal of cleaved substrate” value in series [1] was “Caspase-7 gave virtually no signal”.

B5: Recombinant CPP32 protein (protein)
chain: SGISLDNSYKMDYPEMGLCIIINNKNFHKSTGMTSRSGTDVDAANLRETFRNLKYEVRNKNDLTREEIVELMRDVSKEDHSKRSSFVCVLLSHGEEGIIFGTNGPVDLKKITNFFRGDRCRSLTGKPKLFIIQACRGTELDCGIETDSGVDDDMACHKIPVEADFLYAYSTAPGYYSWRNSKDGSWFIQSLCAMLKQYADKLEFMHILTRVNRKVATEFESFSFDATFHAKKQIPCIVSMLTKELYFYH
As for B5, the results for the Michaelis-Menten constant (Km) in series [4] and in [7] were 154 µM and 60 µM, respectively. The Vmax in series [4] stood at 160 nmol/min.

B6: recombinant human caspase-3 (protein)
chain: SGISLDNSYKMDYPEMGLCIIINNKNFHKSTGMTSRSGTDVDAANLRETFRNLKYEVRNKNDLTREEIVELMRDVSKEDHSKRSSFVCVLLSHGEEGIIFGTNGPVDLKKITNFFRGDRCRSLTGKPKLFIIQACRGTELDCGIETDSGVDDDMACHKIPVEADFLYAYSTAPGYYSWRNSKDGSWFIQSLCAMLKQYADKLEFMHILTRVNRKVATEFESFSFDATFHAKKQIPCIVSMLTKELYFYH
B6: the “Cleavage by Caspase-3” value in series [8] is “Good”; in [9] it was “Good”; in series [10] it was “Fair”; in series [11], “Good”; in series [12] it was “Poor”; in series [13], “Good”. The “Cleavage by Caspase-3” value in [14] is on record as “Good”. In addition, in series [12], the “amount of enzyme needed for cleavage, against tri- and tetrapeptide substrates” value is “a 50-fold greater amount of enzyme than needed for tri- and tetrapeptide substrates”. Further, the “signal above the enzyme blank value (fluorescence of cleaved substrate)” value in [1] is listed as “a signal that was about 5-fold above the enzyme blank value”.
